Source: patent US20210317186A1 (BRIGHAM AND WOMEN S HOSPITAL, published 2021)

T1: endogenous CD5L (mouse; in serum or secreted by bone marrow derived dendritic cells) (mouse, UniProt Q9QWK4 22-352)
T1 construct: also called natural CD5L; AIM
T1 sequence (looked up): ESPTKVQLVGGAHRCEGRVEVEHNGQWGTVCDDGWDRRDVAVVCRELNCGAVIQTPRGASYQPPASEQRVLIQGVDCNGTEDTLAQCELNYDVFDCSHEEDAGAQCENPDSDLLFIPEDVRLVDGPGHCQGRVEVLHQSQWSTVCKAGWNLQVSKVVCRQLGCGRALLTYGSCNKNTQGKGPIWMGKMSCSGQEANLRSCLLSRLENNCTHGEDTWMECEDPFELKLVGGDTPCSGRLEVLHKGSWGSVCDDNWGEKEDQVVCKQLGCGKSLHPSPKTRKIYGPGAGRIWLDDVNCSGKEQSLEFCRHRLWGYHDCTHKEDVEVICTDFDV


Experiments:
[1] = target: the molecule itself; assay: size exclusion chromatography (Superdex S200) of His-tagged CD5L from 293E supernatant
Protocol: Recombinant protein CD5L monomer and homodimer was purified from the supernatant of 293E cells transfected with a CD5L expression vector. Recombinant mCD5L:p40 was recovered from the supernatant of 293E cells transfected with the CD5L:p40 expression vector. After harvesting transfected 293E cells by centrifugation, the protein was affinity purified from the supernatant using Ni Sepharose 6 Fast Flow resin (GE Healthcare). After binding the protein to resin, the resin was washed with 20 mM Tris, 0.3M NaCl, pH 8.0 and the protein eluted using 20 mM Tris, 0.3M NaCl, 0.4M Imidazole, pH 8.0. The protein was further polished by a […] sizing exclusion column (GE Healthcare) in buffer 10 mM NaHPO4, 0.15M NaCl, pH 7.2.

[2] = target: T1, endogenous CD5L (mouse; in serum or …); assay: sandwich ELISA on mouse serum, capture with anti-IL-12 p40, detection with anti-CD5L
Protocol: Serum was collected kinetically from wildtype and Cd5l^{-/-} mice with DSS-induced colitis (2% DSS in drinking water for 6 days followed by 7 days of normal water) and the level of CD5L:p40 was measured using an ELISA assay. In the ELISA assay anti-IL-12 p40 was used to capture the heterodimer and enzyme linked anti-CD5L was used to detect the heterodimer.
Preliminary screens were conducted to determine what signals could induce CD5L homodimer and CD5L:p40 heterodimer. In particular, bone marrow derived dendritic cells were stimulated with TLR ligands for 24 hours and the supernatant was analyzed for CD5L:p40 secretion by ELISA.

Row | binding result [2] | Binder | binding result [1]
1 | – | recombinant CD5L with His tag at C-terminus (mouse, mCD5L) (ligand, Made by Biolegend in 293E cells; The transfection gave a monomer and a homodimer fraction on size exclusion; also called soluble CD5L; sCD5L; not shown: His tag at C-terminus) ESPTKVQLVGGAHRCEGRVEVEHNGQWGTVCDDGWDRRDVAVVCRELNCGAVIQTPRGASYQPPASEQRVLIQGVDCNGTEDTLAQCELNYDVFDCSHEEDAGAQCENPDSDLLFIPEDVRLVDGPGHCQGRVEVLHQSQWSTVCKAGWNLQVSKVVCRQLGCGRALLTYGSCNKSTQGKGPIWMGKMSCSGQEANLRSCLLSRLENNCTHGEDTWMECEDPFELKLVGGDTPCSGRLEVLHKGSWGSVCDDNWGEKEDQVVCKQLGCGKSLHPSPKTRKIYGPGAGRIWLDDVNCSGKEQSLEFCRHRLWGYHDCTHKEDVEVICTDFDV | binds
2 | binds | endogenous p40 (IL-12 p40, Il12b; mouse) (ligand, UniProt P43432 23-335, looked up, also called interleukin 12B) MWELEKDVYVVEVDWTPDAPGETVNLTCDTPEEDDITWTSDQRHGVIGSGKTLTITVKEFLDAGQYTCHKGGETLSHSHLLLHKKENGIWSTEILKNFKNKTFLKCEAPNYSGRFTCSWLVQRNMDLKFNIKSSSSSPDSRAVTCGMASLSAEKVTLDQRDYEKYSVSCQEDVTCPTAEETLPIELALEARQQNKYENYSTSFFIRDIIKPDPPKNLQMKPLKNSQVEVSWEYPDSWSTPHSYFSLKFFVRIQRKKEKMKETEEGCNQKGAFLVEKTSTEVQCKGGNVCVQAQDRYYNSSCSKWACVPCRVRS | –
